Paper PMC10333884 (Molecular Systems Biology, 2023)
Non-standard residues stand in square brackets, D forms with d. No end group written: not given here. pS = N[C@@H](COP(=O)(O)O)C(=O)O

What was measured:
Conditions in all cases: both partners purified
[1] = molecular target: T1, TSG101 UEV domain (human, UniProt Q99816 2-145); assay: fluorescence polarisation; direct binding (saturation curve): 1:1 dilution series of the protein domain with 5 nM FITC-labelled peptide; room temperature; 50 mM sodium phosphate buffer pH 7.4; fitted to the quadratic equation
T1 sequence (looked up): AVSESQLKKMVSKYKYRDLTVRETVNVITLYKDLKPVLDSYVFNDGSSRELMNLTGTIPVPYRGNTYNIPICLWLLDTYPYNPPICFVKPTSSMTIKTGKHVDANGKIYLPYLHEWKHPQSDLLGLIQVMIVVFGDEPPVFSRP

[2] = molecular target: T2, Clathrin N-terminal domain (NTD) (human, UniProt Q00610 1-364); assay: fluorescence polarisation; displacement: unlabelled peptide diluted 1:1 in series and added to a pre-formed complex of protein domain and FITC-labelled probe peptide (5 nM in the measurement); 50 mM sodium phosphate pH 7.4, room temperature; KD calculated from the displacement curves; technical triplicates
T2 construct: clathrin heavy chain, N-terminal domain; also called Clathrin NTD; CLTC-NTD; source: E. coli BL21-Gold(DE3), purified (GSH or Ni2+ beads), tag removed with protease
T2 sequence: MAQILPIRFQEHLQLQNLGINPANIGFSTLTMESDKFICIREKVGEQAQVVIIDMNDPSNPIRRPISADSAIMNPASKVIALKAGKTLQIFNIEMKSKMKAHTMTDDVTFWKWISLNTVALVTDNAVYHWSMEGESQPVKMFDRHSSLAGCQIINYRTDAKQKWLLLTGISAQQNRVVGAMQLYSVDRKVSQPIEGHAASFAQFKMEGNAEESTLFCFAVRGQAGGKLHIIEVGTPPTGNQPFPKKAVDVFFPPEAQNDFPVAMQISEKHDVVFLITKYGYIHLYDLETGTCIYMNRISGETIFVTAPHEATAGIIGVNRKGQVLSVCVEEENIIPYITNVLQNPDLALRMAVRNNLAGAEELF

[3] = molecular target: SNX27 PDZ domain, MBP-tagged (human, UniProt Q96L92 43-136); assay: fluorescence polarisation; direct binding (saturation curve): 1:1 dilution series of the protein domain with 5 nM FITC-labelled peptide; room temperature; 50 mM sodium phosphate buffer pH 7.4; fitted to the quadratic equation
[4] = molecular target: T3, 14-3-3 Theta (human, UniProt P27348 1-245); assay: as above
T3 sequence (looked up): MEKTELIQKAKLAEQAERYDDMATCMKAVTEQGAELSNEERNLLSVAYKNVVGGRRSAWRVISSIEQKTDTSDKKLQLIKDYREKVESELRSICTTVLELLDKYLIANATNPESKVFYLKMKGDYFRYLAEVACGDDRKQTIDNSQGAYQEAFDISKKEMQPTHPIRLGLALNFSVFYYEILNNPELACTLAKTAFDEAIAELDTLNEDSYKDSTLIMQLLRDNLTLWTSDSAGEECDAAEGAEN

[5] = molecular target: T4, GGA1 VHS domain (human, UniProt Q9UJY5 17-147); assay: as above
T4 construct: GGA1, VHS domain; source: E. coli BL21-Gold(DE3), purified (GSH or Ni2+ beads), tag removed by protease
T4 sequence (looked up): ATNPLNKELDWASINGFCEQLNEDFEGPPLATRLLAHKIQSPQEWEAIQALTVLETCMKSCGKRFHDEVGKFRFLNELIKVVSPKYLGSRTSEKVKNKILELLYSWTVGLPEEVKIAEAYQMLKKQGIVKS

[6] = molecular target: T5, FITC-MYC (also: FITC label, position not given here); assay: as above
T5 chain: PAAKRVKLD

[7] = molecular target: T6, FITC-NCOR2 (also: FITC label, position not given here); assay: as above
T6 chain: PKRTYDMMEGRVGRAI

[8] = molecular target: T7, GABARAPL2 ATG8 (human); assay: as above
T7 construct: GABARAPL2, ATG8 domain; source: E. coli BL21-Gold(DE3), purified (GSH or Ni2+ beads), tag removed by protease

[9] = molecular target: MAP1LC3B ATG8 (human); assay: as above
[10] = molecular target: T8, MAP1LC3A ATG8 (human); assay: as above
T8 construct: MAP1LC3A, ATG8 domain; source: E. coli BL21-Gold(DE3), purified (GSH or Ni2+ beads), tag removed by protease

[11] = molecular target: T9, GGA1 VHS (human, UniProt Q9UJY5 17-147); assay: fluorescence polarisation; displacement of a FITC-labelled probe peptide (5 nM in the measurement) from the protein domain (1-2 fold over the probe's KD) by a dilution series of unlabelled peptide; room temperature; 50 mM sodium phosphate pH 7.4; KD calculated from the displacement curve; for KPNA4 ARM one probe for each pocket
T9 construct: GGA1 VHS domain; limits in Dataset EV3; construct limits are in Dataset EV3; also called GGA1 VHS domain; source: E. coli BL21-Gold(DE3), purified, tag removed
T9 sequence (looked up): T4 sequence (looked up)

[12] = molecular target: T10, Clathrin N-terminal domain (NTD) (human, UniProt Q00610 1-364); assay: fluorescence polarisation; direct binding (saturation curve): 1:1 dilution series of the protein domain with 5 nM FITC-labelled peptide; room temperature; 50 mM sodium phosphate buffer pH 7.4; fitted to the quadratic equation
T10 construct: clathrin heavy chain, N-terminal domain; also called Clathrin NTD; CLTC-NTD; source: E. coli BL21-Gold(DE3), purified (GSH or Ni2+ beads), tag removed by protease
T10 sequence: T2 sequence

[13] = molecular target: T11, AP2 µ2 (human, UniProt Q96CW1 1-435); assay: as above
T11 construct: AP-2 complex subunit mu (AP2 µ2); also called AP2 μ2; source: E. coli BL21-Gold(DE3), purified (GSH or Ni2+ beads), tag removed by protease
T11 sequence (looked up): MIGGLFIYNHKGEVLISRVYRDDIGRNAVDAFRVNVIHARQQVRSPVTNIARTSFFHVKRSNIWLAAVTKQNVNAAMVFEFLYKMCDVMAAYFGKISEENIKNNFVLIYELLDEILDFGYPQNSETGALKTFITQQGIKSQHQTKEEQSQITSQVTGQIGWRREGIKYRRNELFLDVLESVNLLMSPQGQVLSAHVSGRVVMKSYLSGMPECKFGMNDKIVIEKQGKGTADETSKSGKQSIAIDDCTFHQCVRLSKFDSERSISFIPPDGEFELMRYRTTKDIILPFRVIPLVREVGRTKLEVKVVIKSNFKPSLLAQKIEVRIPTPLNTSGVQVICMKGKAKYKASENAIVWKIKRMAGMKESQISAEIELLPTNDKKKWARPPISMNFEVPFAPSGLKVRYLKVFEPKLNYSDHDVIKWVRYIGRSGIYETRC

[14] = molecular target: T12, FITC-HIV1_Gag (HIV-1 (printed as HIV1), also: FITC label, position not given here); assay: as above
T12 chain: SLYPPLTSLR

[15] = molecular target: T13, RANBP2 RanBD4 (human); assay: as above
T13 construct: the sheet prints 'RanBD1 4'); also called RANBP2 RanBD1 4; RAN2BP RanBD4; source: E. coli BL21-Gold(DE3), purified (GSH or Ni2+ beads), tag removed by protease

GLIPTAPPAD (also: FITC label, position not given here) [FITC-HIV2_Gag]
Kd [1]: 1.9 µM

B1: GTSE1 692-707 peptide phosphorylated at S705 (peptide)
peptide: YGQLIDLSSPLIQL[pS]PE
notes: not part of GTSE1; G2 and S phase-expressed protein 1 (GTSE1), human, residues 692-707; also called pS705 GTSE1; source: synthetic peptide (Glbiochem or Genecust)
Kd [2]: 105 µM

GSLEMETAFNSRGFED (also: FITC label, position not given here) [FITC-SYT16]
Kd [3]: 7.5 µM

RQRSAP (also: FITC label, position not given here) [FITC-2BTP]
Kd [4]: 27.8 µM

B2: GTSE1 692-707 peptide phosphorylated at S699 (peptide)
peptide: YGQLIDLS[pS]PLIQLSPE
notes: not part of GTSE1; G2 and S phase-expressed protein 1 (GTSE1), human, residues 692-707; also called pS699 GTSE1; source: synthetic peptide (Glbiochem or Genecust)
Kd [2]: 109 µM

B3: GTSE1 692-707 peptide, unphosphorylated (peptide)
peptide: YGQLIDLSSPLIQLSPE
notes: not part of GTSE1; G2 and S phase-expressed protein 1 (GTSE1), human, residues 692-707; also called wild-type GTSE1; source: synthetic peptide (Glbiochem or Genecust)
Kd [2]: 91 µM

DDSDEDLLHI (also: FITC label, position not given here) [FITC-IGF2R]
Kd [5]: 31 µM

B4: GTSE1 692-707 peptide phosphorylated at S698 (peptide)
peptide: YGQLIDL[pS]SPLIQLSPE
notes: not part of GTSE1; G2 and S phase-expressed protein 1 (GTSE1), human, residues 692-707; also called pS698 GTSE1; source: synthetic peptide (Glbiochem or Genecust)
Kd [2]: 123 µM

B5: KPNA4 ARM domain (domain or fragment)
chain: GDYRVQNTSLEAIVQNASSDNQGIQLSAVQAARKLLSSDRNPPIDDLIKSGILPILVHCLERDDNPSLQFEAAWALTNIASGTSEQTQAVVQSNAVPLFLRLLHSPHQNVCEQAVWALGNIIGDGPQCRDYVISLGVVKPLLSFISPSIPITFLRNVTWVMVNLCRHKDPPPPMETIQEILPALCVLIHHTDVNILVDTVWALSYLTDAGNEQIQMVIDSGIVPHLVPLLSHQEVKVQTAALRAVGNIVTGTDEQTQVVLNCDALSHFPALLTHPKEKINKEAVWFLSNITAGNQQQVQAVIDANLVPMIIHLLDKGDFGTQKEAAWAISNLTISGRKDQVAYLIQQNVIPPFCNLLTVKDAQVVQVVLDGLSNILKMAEDEAETIGNLIEECGGLEKIEQLQNHENEDIYKLAYEIIDQFFSSDDIDEDPSLVPEAIQGGTFGFNSSANVPTEGFQF
Kd [6]: 0.003 µM | Kd [7]: 0.013 µM

DDDWTHLSSK (also: FITC label, position not given here) [FITC-SQSTM1]
Kd [8]: 11 µM | Kd [9]: 2.5 µM | Kd [10]: 1.36 µM

INLFEKEKEMKKSPTS (also: phosphoserine/threonine, site not given here) [GTSE1_(145–160), phosphorylated (pS)]
Kd [11]: 640 µM

SVDLITFDSV (also: FITC label, position not given here) [FITC-NSP3]
Kd [12]: 26 µM

FDTEYQRLEAS (also: FITC label, position not given here) [FITC-ATG9A]
Kd [13]: 1.51 µM

B6: PDCD6IP Alix V domain (domain or fragment)
chain: PVSVQQSLAAYNQRKADLVNRSIAQMREATTLANGVLASLNLPAAIEDVSGDTVPQSILTKSRSVIEQGGIQTVDQLIKELPELLQRNREILDESLRLLDEEEATDNDLRAKFKERWQRTPSNELYKPLRAEGTNFRTVLDKAVQADGQVKECYQSHRDTIVLLCKPEPELNAAIPSANPAKTMQGSEVVNVLKSLLSNLDEVKKEREGLENDLKSVNFDMTSKFLTALAQDGVINEEALSVTELDRVYGGLTTKVQESLKKQEGLLKNIQVSHQEFSKMKQSNNEANLREEVLKNLATAYDNFVELVANLKEGTKFYNELTEILVRFQNKCSDIVFARKTER
Kd [14]: 3.6 µM

KEALATPLPK (also: FITC label, position not given here) [FITC-C7orf25]
Kd [15]: 22 µM
